# Assay: soluble on expression in E. coli; label from the status in PepcDB or PDB records
row,Sequence,soluble on expression in E. coli
1,MTDLFASGDNSSNSFDDSNDEIARKNETAFKYTTIFHTNLSEKLYHELCALAFGEFDIPQGQISPLMWTRLHEIYSEVEMQTRKLPAGSNYSASSQKYANEAVQIASVLSIYTALAHEYDETVEVSLLSKLVVEDVEFRRIYALLLWSEKAISEQQYEKGLGDKVRKLEGIKSSRINSMMALKRPTFGAANAPKDASLDPDAPGTKEDQALEQMAMNVFFQLIRSGETSKAANLAIDLGMGAIGAQLQLHSMLRNPLDIPLEASKQNFGEYKRSRRAKYYQMTQKLIEQSQGSEDDAYWMLISAIRGNIQPMLKAGKSVIEKVWAYANSAVLARILAAEGAMTQETISTLFNVPLTSKSILDELRSEADRTKEVYILLRVIDDMLNDDIEDLYKFANETVGEFVPNDKNCQVNMLALDIFFHLVAVSYASGFEPNDDGNAVIILGFDDLRARSGTSSHKKMAAFYSRFLPEDMKLPEIVETMKAVDSDEEREILAESLKQSDIDFGRCACTLIEQIRKDDKTKVVTLEEQIDHWHWLLIGGEETALAALEECNRLVRKVMLSTPIDESVIRQIIRKALHFEVPKLLSQAVENEATVLSLITDGTLFEQKPGSQLAINKIEHAALEFYGLCSFVDVNNFMITIALKLGLMFKYTPITDDELSMIGGVKRLDNTTAADWEASLRVRARAEQTLREEVLKKRAAEHNTRVGMVQQHLDTVLPMLRGLVNNIGVRPEYFLSPRANGDPMRVHRKEIQEIRNLFLPQFFILLAQAAVRLDDTTNFNDFFTSFNNDLGLDQEWMVFIKAFYAELNLKVE,soluble
2,MTVKAMALNTNQLFAYLNRGDIAEFKFSPLFTTLFFPNVATFSTQNIMLDTLDIEEVTMSAFCSPMVGSQVQRDKGYETSTIKPGYMKPKHEIDPTKTIMRMAGEDPAQLNDPTYRRMRLITGNMRRQINAIKARVEWLAVNAVTTGKNIIEGEGIERYEIDWKIPEKNIIEQADGKKWSEQDKETHYPIYDIELYADQAGCPANVMIMGAEVWRTLRSFKKFRELYDLSRGSESAAELACKNLGEVVSFKGYLGDLALIVYSGKYTDSDGTEKYFLEPDLLVLGNTNNKGLVAYGAIMDQEAVRTGATQNMFYPKNWIEDGDPAIEYVQTHSAPQPVPADIRKFVTVKIA,soluble
3,MTDESDSTAHVSCIIPVYNDSVGIKNTLRSVVGQEYHGYDVYVVDNGSTDGSRRRVRNCAAESDDIQLLVEDEVQGSYAARKTGVQNAESDVLAFLDADETVDEDWLETALGAMQEQDVDYLGCNVELTCPEDTLVGRYNARTGFPVEEYLEDQNYAPTCALLVRRKVFEDVGPFDARLISGGDREFGDRVHDAGYEQGYAENATVYHPARTSLESLAKKNFRVGRGFCQKQRYYPERYGKPGIPPTPSGPSGGDDGDEPDASLTRLAFTLLSIAMLACRGVGYYYEFVVGEENDDIPAPTSLEHHHHHH,not soluble
4,MSLNVVGYVRLSRDEDKENYSSIITQKNIIEEYSKNKNWTVNRIYVDDNCSGYTFERPEFLKMMYEIKERKIDVIVAKDLSRIGRNNGKVLVFIDKLKEKGIRLILVEEATGGLDLLEDNYDILGIKTWYNEMYVKDISRKIRASMHLKQKKGKEGHHHHHH,soluble
5,MHSVPSTGFPQSEFSGPFWTGRGVACARPNRYVWTARPSDQSSRRMSTSFSRRLRRLQSQKETALCVGLDPVPARFPPSLQDGRLRTDAVRAFCTTIVEATAPYACAFKPNFAFFEALGPAGLTVLDQVVTTIPDDCLVLGDAKRGDIGHSARHYAASIYEELGLDACTVSPYLGRDSVMPFLEHEGTCTFVLARTSNDGAADLQEACTCDGTPLYRHVARRVQAWNADAPGGAGLVVGATAPAALQDLRSLCPSLPFLVPGVGAQGGDAAAVMDAAATDEGPVLVNSSRSILYASEGPNYANAAADAARALRDALNGGASSSRGAPSPPALEHHHHHH,soluble
6,MVGPARPQIVLFGSSIVQMSFGHGGWGAILSEVYARKADIILRGYYGWNSSRALEVVDQVFPKDAAVQPSLVIVYFGGNDSMAPHSSGLGPHVPLTEYVDNMKKIALHLQSLSDFTRIIFLSSPPVDEAKVRQNQSPYLSEVIRTNDLCKTYSDACVELCQELGLEVVDLFSTFQKADDWKTVCFTDGIHLSAQGSKIVAGEILRVVKEAEWHPSLHWKSMPTEFADDSPYDLVSADGKQTVNSSEWTYFWEEQWD,soluble
7,MKSNHYMSIMEEFYMDKNLLEITGYDGEGYVPLIDYSHWRVAELRYCEELEVDKLKDMQKHDETDEVFVLLEGDFTLFLGGNGEHIGEIEAIKLEPLKLYNVKRGTYHTHTPEKNSTVLIVENVDTTDDNSPKEKLTLEQKKIIEKLYKEVNS,not soluble
8,MAEVITLSDDDDDVIPLTPRPPVVLKTSTTANHGNNSQATVHVSTGKNLNFDQIGIRRLSDVYNKNQPAFRGNEIPTGIRNSRPSLPATAILQNPQFLVQLAAKGLKRPFSSVHSTPAVVPSTSIQRTRNNQNAGNTPNIYKGHYMFEATESYEPSRRSSRYNTKKIEGKFMCSYNPTKCYKLCGSVVEVINHIWAHVIHDPPLPPIEKKESKDDGMFSCLLRNSDAAQLAENSALSLKRLQTCQFCNAVFRTVHLKTIHVVKCHMEQDHLDTTCNICELDFGNSIALNTHMKKHISGEAPYNCQKCKYRTSVRAFFYQHFIEKHSNETLLCPICLHHEDLRPNVRRSKHIFVREFVNHMRSHALGPQMRCHVCALTFTSRLLLEAHRTNDHTMLNSLWQVIERKSVHETEREHMSKRNKIGLLQRRFFETLEGRRINDEVACAGDKEREGFDLTTTGDTLFECECGFKSWNGNRTASHYHKCRRSINDIERKREIVRLGSDPKEELELFAVYPQPTNTEAETEEATLRKIHLERGDPLPILEDIVYQPIDDLPLLKMLSKNHDKSLEIMEKCTASAVTTED,not soluble
9,MAHHHHHHMGFSLLHPLPSAIHAGSNSSRLAVQRNPCRRSTEWCHGGSSGKQKKQRHCRGSEAGRPSGLPPNPRAPPPHHHRSAEGPRRPARHRRRHRRCTEDRPSSKPPAAHPRCRWARSPRRLSEHLGRLPLLGRRILLGCSQVDILRWGAAAGINALRNGDGCPLAILVQ,not soluble
10,MSLRYIYFFGRKINLSERDKIFRDITSKYKCIHDLRCAFDHTEISSFENIDFNIIDDYLFYIELNEKSYTFNDGISLMVQERFWEAHEALEQLWRHSNGLEKSTLRFIIMVCTAFVHLQRGHYSIYHEVMENALKIDTYNEYKCINIKSLKSEIRSGIFNTYFFIKSLKEGHHHHHH,soluble
11,MKPIIVKKGDIRRLLKESGEIDGNDGRISVAAHILYQFGDRIVFVKAYENEDIDLKIKNRKNDYRYIKVIASQNGEFHIMDLPIGDRRIGSETLYGLIMASETFGTRLRNEILNMISFEMKRRNSIWILVDKDSHAYYPFTTHSITEIILHDVEYRFERGLIDRNLEIRVPVQFIYNYWQRYLKAKNRTPGEVWASMILQ,not soluble
12,MAHHHHHHMGTLEAQTQGPGSMNAGLDQVDPIWHSIRAEAEEATRNDPVLGAFLYATILNQPSLEEAVMHRIAERLGHPDVSADILRQTFDTMLEANPEWSHVLRVDIQAVYDRDPAYSRFMDPVLYLKGFHAIQTHRLAHWLYKQGRKDFAYYLQSRSSSIFQTDIHPAARLGSGLFLDHATGLVVGETAVVEDNVSILHGVTLGGTGKSSGDRHPKIRQGVLIGAGAKILGNIQVGQCSKIAAGSVVLKSVPHNVTVAGVPARIIGETGCTEPSRVMDQMLGDGI,soluble
13,MGSDKIHHHHHHMKTLKNLITSKHQTKASRFLGYLMPFDDFEKTLLQLKKEHFKAAHFVTAFRYSLEGKITEGFSDDGEPKGSSGMPMLSVLRREDLINIGLVSVRYFGGTLLGVGGLMKAYAKSALLCVENAQKEDALKDFVELETLSAHYSYKELDALQREIKKFSLQLSKKNFSNQSVEVEISGTRENLQAFLQQNKIN,not soluble
14,MGFKCGIVGLPNVGKSTLFNALTKAGIEAANYPFCTIEPNTGVVPMPDPRLDALAEIVKPERILPTTMEFVDIAGLVAGASKGEGLGNKFLANIRETDAIGHVVRCFENDDIVHVAGKIDPLDDIDTINTELALADLDSCERAIQRLQKRAKGGDKEAKFELSVMEKILPVLENAGMIRSVGLDKEELQAIKSYNFLTLKPTMYIANVNEDGFENNPYLDRVREIAAKEGAVVVPVCAAIESEIAELDDEEKVEFLQDLGIEEPGLNRVIRAGYALLNLQTYFTAGVKEVRAWTVSVGATAPKAAAVIHTDFEKGFIRAEVIAYEDFIQFNGENGAKEAGKWRLEGKDYIVQDGDVMHFRFNV,soluble

# Reference: the DeepSol protein solubility set
